Measurements from patent publication US20070092933A1 (AVIDIS, published 2007).

Assays:
[1] = target: the molecule itself; test: gel filtration (S75 26/60), self-association of monomers

B1: DsbA-C4bp fusion protein (human C4bp core fused to the C-terminus of the E. coli DsbA protein) (protein)
chain: AQYEDGKQYTTLEKPVAGAPQVLEFFSFFCPHCYQFEEVLHISDNVKKKLPEGVKMTKYHVNFMGGDLGKDLTQAWAVAMALGVEDKVTVPLFEGVQKTQTIRSASDIRDVFINAGIKGEEYDAAWNSFVVKSLVAQQEKAAADVQLRGVPAMFVNGKYQLNPQGMDTSNMDVFVQQYADTVKYLSEKKETPEGCEQVLTGKRLMQCLPNPEDVKMALEVYKLSLEIEQLELQRDSARQSTLDKEL
Question: For B1, which “increase of turbidity at 650 nm (insulin disulphide reduction assay)” value (insulin) is on record?
Answer: Its value is “the DsbA present in the DsbA-C4bp fusion protein is still active, and the activity is directly comparable to the activity of soluble DsbA”.

B2: DsbA (soluble DsbA of E. coli) (protein)
chain: AQYEDGKQYTTLEKPVAGAPQVLEFFSFFCPHCYQFEEVLHISDNVKKKLPEGVKMTKYHVNFMGGDLGKDLTQAWAVAMALGVEDKVTVPLFEGVQKTQTIRSASDIRDVFINAGIKGEEYDAAWNSFVVKSLVAQQEKAAADVQLRGVPAMFVNGKYQLNPQGMDTSNMDVFVQQYADTVKYLSEKK
Question: Which “increase of turbidity at 650 nm (insulin disulphide reduction assay)” value (insulin) does the source give for B2 here?
Answer: Its value is “the activity is directly comparable to the activity of soluble DsbA”.

B3: db-C4bp fusion protein (downstream box peptide fused N-terminal to the 57 amino acid core domain of the human C4bp alpha chain) (other)
chain: MASMNHKGSETPEGCEQVLTGKRLMQCLPNPEDVKMALEVYKLSLEIEQLELQRDSARQSTLDKEL
notes: Expressed in the cytosol of E. coli C41(DE3); Predicted monomer size 7491.5 Da; Recovered as an oligomer of about 60-67 kDa by gel filtration, with disulphide bonds between the monomers; also called native db-C4bp; product of plasmid pAVD 77
Question: Does B3 bind [1]?
Answer: Result: binds
